Measurements published in patent US20220289816A1, “IMMUNOTHERAPY WITH B*07 RESTRICTED PEPTIDES AND COMBINATION OF PEPTIDES AGAINST CANCERS AND RELATED METHODS” (Immatics Biotechnologies GmbH, priority 2018, published 2022).

Molecular target: HLA-B*07 (Homo sapiens, UniProt P01889)
Assay: MHC binding assay (UV-ligand exchange, ELISA of stabilized MHC complexes)
Conditions: peptide exchange yield on HLA-B*07, UV-ligand exchange
Description: Candidate peptides for T cell based therapies according to the present invention were further tested for their MHC binding capacity (affinity). The individual peptide-MHC complexes were produced by UV-ligand exchange, where a UV-sensitive peptide is cleaved upon UV-irradiation and exchanged with the peptide of interest as analyzed. Only peptide candidates that can effectively bind and stabilize the peptide-receptive MHC molecules prevent dissociation of the MHC complexes. To determine the yield of the exchange reaction, an ELISA was performed based on the detection of the light chain (β2m) of stabilized MHC complexes. The assay was performed as generally described in Rodenko et al. (Rodenko et al., 2006)
96 well MAXISorp plates (NUNC) were coated over night with 2 ug/ml streptavidin in PBS at room temperature, washed 4× and blocked for 1 h at 37° C. in 2% BSA containing blocking buffer. […] Peptide-MHC monomers of the UV-exchange reaction were diluted 100-fold in blocking buffer. Samples were incubated for 1 h at 37° C., washed four times, incubated with 2 ug/ml HRP conjugated anti-[…] for 1 h at 37° C., washed again and detected with TMB solution that is stopped with […]. Absorption was measured at 450 nm. Candidate peptides that show a high exchange yield (preferably higher than 50%, most preferred higher than 75%) are generally preferred for a generation and production of antibodies or fragments thereof, and/or T cell receptors or fragments thereof, as they show sufficient avidity to the MHC molecules and prevent dissociation of the MHC complexes.

| Substance | Peptide exchange |
| --- | --- |
| 184 (KIIASGNHL; listed as Homo sapiens) [compound 184] | ++ (>20% = ++) |
| 310 (SPGWAQTQL; listed as Homo sapiens) [compound 310] | ++++ (>75% = ++++) |
| 341 (LPRSPPLKVL; listed as Homo sapiens) [compound 341] | ++++ (>75% = ++++) |
| 217 (SPGDKRLAAYL; listed as Homo sapiens) [compound 217] | +++ (>50 = +++) |
| 340 (APEPRAALL; listed as Homo sapiens) [compound 340] | +++ (>50 = +++) |
| 252 (QPENSLEGISL; listed as Homo sapiens) [compound 252] | +++ (>50 = +++) |
| 301 (FPAFLEAM; listed as Homo sapiens) [compound 301] | +++ (>50 = +++) |
| 247 (SPVGVGQRL; listed as Homo sapiens) [compound 247] | +++ (>50 = +++) |
| 242 (IPETASVVAI; listed as Homo sapiens) [compound 242] | +++ (>50 = +++) |
| 322 (RAVPVGSGL; listed as Homo sapiens) [compound 322] | +++ (>50 = +++) |
| 146 (SPTRGSEF; listed as Homo sapiens) [compound 146] | ++++ (>75% = ++++) |
| 203 (KPRGPIDI; listed as Homo sapiens) [compound 203] | ++ (>20% = ++) |
| 193 (LPALKEEAF; listed as Homo sapiens) [compound 193] | ++++ (>75% = ++++) |
| 332 (SPYAGSTAF; listed as Homo sapiens) [compound 332] | ++++ (>75% = ++++) |
| 206 (TPRIGPKVSL; listed as Homo sapiens) [compound 206] | +++ (>50 = +++) |
| 334 (YPLSLALHF; listed as Homo sapiens) [compound 334] | ++++ (>75% = ++++) |
| 239 (VLPRAGGAFLM; listed as Homo sapiens) [compound 239] | +++ (>50 = +++) |
| 88 (KPSAVKDSIY; listed as Homo sapiens) [compound 88] | ++ (>20% = ++) |
| 147 (HVAQPAVVL; listed as Homo sapiens) [compound 147] | +++ (>50 = +++) |
| 129 (MTLPATTLTL; listed as Homo sapiens) [compound 129] | ++ (>20% = ++) |

The next lines start with the values.

| Peptide exchange | Substance |
| --- | --- |
| ++ (>20% = ++) | 357 (LPPHIFAI; listed as Homo sapiens) [compound 357] |
| + (>10% = +) | 475 (IPLEIQKL; listed as Homo sapiens) [compound 475] |
| ++ (>20% = ++) | 491 (MPEADLKRIF; listed as Homo sapiens) [compound 491] |
| ++++ (>75% = ++++) | 449 (RPKTSVNLISSL; listed as Homo sapiens) [compound 449] |
| ++ (>20% = ++) | 484 (LPASAEPKGTM; listed as Homo sapiens) [compound 484] |
| ++++ (>75% = ++++) | 368 (NPASRLTAL; listed as Homo sapiens) [compound 368] |
| ++++ (>75% = ++++) | 352 (LPAFSKIGGIL; listed as Homo sapiens) [compound 352] |
| +++ (>50 = +++) | 464 (VPFVPRTSV; listed as Homo sapiens) [compound 464] |
| ++++ (>75% = ++++) | 458 (VPIPTHYFVVL; listed as Homo sapiens) [compound 458] |
| ++++ (>75% = ++++) | 374 (KPRNMTGLDL; listed as Homo sapiens) [compound 374] |
| ++ (>20% = ++) | 486 (TPTRPLPSA; listed as Homo sapiens) [compound 486] |
| +++ (>50 = +++) | 497 (YVVKPLHPF; listed as Homo sapiens) [compound 497] |
| +++ (>50 = +++) | 481 (SPARALLLALA; listed as Homo sapiens) [compound 481] |
